Measured values as given in patent US7998688B2, “Inhibition of EMT induction in tumor cells by anti-cancer agents” (OSI Pharmaceuticals, LLC, priority 2008, dated 2011).
Where two headings read alike, the source gives them in different places.

Experiments:
[1] = phase III, monotherapy, patients with advanced, treatment-refractory NSCLC; cited from earlier work
[2] = phase III, first-line, in combination with gemcitabine, pancreatic cancer; cited from earlier work
[3] = tested on: H358 NSCLC cells; test: TGFβ3 induction of EMT in H358 NSCLC cells (western blot); type: cell-based, human; conditions: TGFβ3 1 nM, 7 days (FIG. 1)
Description: FIG. 1: TGFβ3 induces EMT in H358 NSCLC cells. H358 cells were treated with TGFβ3 (1 nM, 7 days) in the presence or absence of the TGFβ receptor kinase inhibitor SB43 1542. Protein extracts were analyzed by western blot using the indicated antibodies.
Western blot analysis: For western blot analysis in H358 cells, cells were harvested 72 hrs after the addition of TGFβ3 addition (5 and 3 days after first and second siRNA transfections). For western blot analysis in HCT116/tet-on/Snail-Flag cells, cells were harvested 24 hours after Dox addition. […] Cell lysates were cleared of insoluble material by centrifugation at 15,000×g for 5 minutes at 4° C. Protein concentrations were measured in the resultant supernatant using the BCA protein analysis kit ([…].; 23225). 15 ug total lysate was used for SDS-PAGE followed by immunoblotting with the appropriate antibodies. The following antibodies were used: E-cadherin (Cell Signaling, Beverly, Mass.; 3195), vimentin (BD Biosciences, San Jose, Calif.; 550513), ErbB3 (Santa Cruz Biotechnology, Santa Cruz, Calif.; sc285), PAK1 (Cell Signaling, 2062), PAK2 (Cell Signaling, 2068), Flag (Sigma, F3165), ZEB1 (Santa Cruz, sc25388), N-Cadherin (Santa Cruz, sc7939), Fibronection (BD, 610078), β-action (Sigma, A1978).

[4] = tested on: H358 cells; test: TaqMan quantitative RT-PCR of ZEB1 and Snail mRNA in TGFβ3-treated H358 cells; type: cell-based, human; conditions: H358 cells without PAK knockdown, 72 h post-TGFβ3, TaqMan (FIG. 4)
Description: siRNA knockdown and TGFβ3 treatment: For PAK1 and PAK2 siRNA knockdown in H358 cells, cells were seeded at a density of 5×10^4 cells/well in 6-well dishes. Next day, the cells were transfected using Lipofectamine 2000 (Invitrogen, 11668-019) with 62.5 nM PAK1 (Invitrogen; validated stealth siRNAduplex2, 12936-54) 62.5 nM PAK2 (Invitrogen; validated stealth siRNA duplex 1, 12936-55), 62.5 nM PAK1 & 62.5 nM PAK2 siRNA, or 62.5 nM negative control (Invitrogen, 12935-300) according to the manufacturer's instructions. Transfection reagent was replaced 4 hours post transfection with fresh media. The cells were re-transfected as above 48 hrs after initial transfection. 4 hours post-transfection, the transfection reagent was replaced with fresh media plus or minus 10 nM TGFβ3.
RNA isolation and TaqMan analysis: For TaqMan analysis, total RNA was isolated 72 hours after TGFβ3 treatment of H358 cells (5 and 3 days after first and second siRNA transfections). SuperArray's (SuperArray Bioscience Corp. Frederick, Md. 21704, USA) Total RNA Isolation Kit (GA-013) was used. Subsequently first strand cDNAs were made using RT PCR Array First Strand Kit (SuperArray; C-02). Quantitative-RT-PCR analyses were performed using Taqman Gene Expression Assays (Applied Biosystems, Foster City, Calif.) for PAK1, PAK2, Zeb1, and Snail.

## C#Cc1cccc(Nc2ncnc3cc(OCCOC)c(OCCOC)cc23)c1 [erlotinib, [6,7-bis(2-methoxyethoxy)-4-quinazolin-4-yl]-(3-ethynylphenyl) amine]
[1]
  disease progression: delayed disease progression
  survival: significantly prolonged survival
  worsening of lung cancer-related symptoms: delayed worsening of lung cancer-related symptoms
[2]
  survival: improves survival

B1: TGFβ3: Human recombinant mature TGF-beta3 prepared and purified at OSI Pharmaceuticals; EMT inducer (protein, UniProt P10600 301-412, looked up)
Transforming growth factor …: ALDTNYCFRNLEENCCVRPLYIDFRQDLGWKWVHEPKGYYANFCSGPCPYLRSADTTHSTVLGLYNTLNPEASASPCCVPQDLEPLTILYYVGRTPKVEQLSNMVVKSCKCS
modifications: Transforming growth factor beta-3
notes: Human recombinant mature TGF-beta3 prepared and purified at OSI Pharmaceuticals; EMT inducer
[3]
  expression of epithelial markers (E-cadherin and ErbB3): downregulating the expression of epithelial markers (E-cadherin and ErbB3)
  expression of mesenchymal markers (vimentin, N-cadherin, and fibronectin): upregulating that of mesenchymal markers (vimentin, N-cadherin, and fibronectin)
  protein levels of the EMT driver ZEB1: increase in the protein levels of the EMT driver ZEB1
[4]
  Snail mRNA induction by TGFβ3: ~2.8 fold
  ZEB1 mRNA induction by TGFβ3: 6 fold
